{"source": "the nanobody polyreactivity screen of Harvey et al. (2022)"}
{"experiment": "yeast display, Sf9 membrane polyspecificity reagent, FACS + sequencing; frameworks hold sequencing errors", "summary_of_the_method": "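Sorting gates, low and high (top ~1%), were placed on anti-HA fluorescence to track expression and on streptavidin fluorescence to track reagent binding. A clone's polyreactivity label is taken from the gate it came out of. The reagent was 10% biotinylated, detergent-solubilized Sf9 membrane, applied for 1 hour at 4 °C to galactose-induced yeast display cells.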"}
{"sequence": "QVQQQESGGGLVQAGGSLRLSCAASGTIFQLTVMGRYRQAPGNERELVASIDYGGNTNYADSVKGRFTISRDNAKNTVYLQMNILKPEDTAVYYCPASSDSWTTHPYWGQGTQVTLSS", "polyreactivity (PSR sort gate)": "low polyreactivity"}
{"sequence": "QVQQQESGGGLVQAGGSLRLSCAASGTIFQLTVMGRYRQAPGQERELVASIDYGGNTNYADSVNGRFTISRDNAKNTVYLQMNSLKPEDTAVYYCAASSDSWTTHPYWGQGTQVTVSS", "polyreactivity (PSR sort gate)": "low polyreactivity"}
{"sequence": "QVQQQESGGGLVQAGGSQRLSCAASGTSLNSLCMGWYRQAPGKRREFVASITWGTTTNYAESVKGRFTISRDNANNTVYPQMNSLKPEDTAVYYCAAPPFGDSSYHYWGQGTQVTVSS", "polyreactivity (PSR sort gate)": "low polyreactivity"}
{"sequence": "QVQQQESGGGLVQEGGSLRLSCAASGNISPPADMGWYRQAPGKERELVASIGTGGTTNYADSVKGRFTISRDNAKNTVYLQMNSLKPDDTAVFYCAAVRYEYNPYDYWGQGTQVTVSS", "polyreactivity (PSR sort gate)": "low polyreactivity"}
{"sequence": "QVQREESGGGLVQAGGSLRLSCAASGFIFDNNAMGWYRQAPGKERELVAAISSADSTNYADSEKGRFSISRDNAKNTVYLQMNSLKPEDTAVYSCNRSQGGEKGWFHYDSWGQGTQVTVSS", "polyreactivity (PSR sort gate)": "low polyreactivity"}
{"sequence": "QVQREESGGGLVQAGGSLRLSCAASGITFVLNVMGWYRQAPGKETELLAAISASGGRTYYADSVKGRFTISRDNAKNTVYLQMNSLKPEDTAVYYCNAVLPRYTFRSGVFEYDWGQGTQVTVSS", "polyreactivity (PSR sort gate)": "high polyreactivity"}
{"sequence": "QVQREESGGGLVQAGGSLRLSCAASGRIMNINAMGWYRPATGKERERVAAITWRGGRTFYADSVKGRFTISRDNAKNTVYLQMNSLKAEDTAVYYCAASSNSWYPTGYYWGQGTQVTVSS", "polyreactivity (PSR sort gate)": "high polyreactivity"}
{"sequence": "QVQREESGGGLVQAGGSLRLSCAASGSIFVGNAMGWYRQAPGKESELVAAITASGTSTYYADSVKGRFTISRDNAKNTVYLQMNSLKPEDTAVYYCNAVQLVYDQYRYDYWGQGTQVTVSS", "polyreactivity (PSR sort gate)": "high polyreactivity"}
{"sequence": "QVQRVDSGGGLVQAGGRLRLSCAASGLNFYLYAMGLYRQAPRKEREFVAAITTSGGSTHYADSVKGRFTISRDNAKNTVYLQMNSLKPEDTAVYYCAADDYFHGPGMEFDFLGQGTQVTVSS", "polyreactivity (PSR sort gate)": "low polyreactivity"}
{"sequence": "QVQRVDSGGGLVQAGGSLRLSCAASGITFTLYDMGWYRQAPGKERELVASITSDGSTDYADSVKGRFTISRDNAKNTVYLQMISLKPEDTAVYYCNARVTYSWYRFGRSGDDSWGQGTQVTVSS", "polyreactivity (PSR sort gate)": "low polyreactivity"}
{"sequence": "QVQRVDSGGGLVQAGGSLRLSCAASGRILRDYDRGWYRQAPGKDRELVAAINWSDGSTYYADSVKGRFTISRDNAKNTVYLQMNSLKPEDTAVYYCAASRWRPLERGTTWLHDYWGQGTQVTVSS", "polyreactivity (PSR sort gate)": "low polyreactivity"}
{"sequence": "QVQRVDSGGGLVQAGGSLRLSCAASGSIFEWYDMVWYRQAPGTERELVAAITTGGITNYSDSVKARFTISRDNAKNTVYLQMNSLKPEDTAVYYCNADFTVEFDYWGQGTQVTVSS", "polyreactivity (PSR sort gate)": "low polyreactivity"}
{"sequence": "QVQRVESGGGIVQAGGSLRLSCAASGFIFRRYAMGWYRQAPGKERELVAAISSSGGRTTYADSVKGRFTISRDNAKNTVYLQMNSLKPEDTAVYYFNADLWPGNHDGYWGQGTQVSVSS", "polyreactivity (PSR sort gate)": "low polyreactivity"}
{"sequence": "QVQRVESGGGLVHAAGSRRLSCAASGSIFWPYAMGWYRLAPGKEREFVAPISSSGSRTHYADSVKGRFTISRDTAKNTVYLQMNSLKPEDTAVYYCATDSRVITWYGGVEFDYWGQGTQVTVSS", "polyreactivity (PSR sort gate)": "low polyreactivity"}
{"sequence": "QVQRVESGGGLVQAGGRLRLICAAAGYTFDYYAMGWYRQAPGKERELVAAISRSGTRTYYADSVKGRFTISRDNAKNTVYLQMYSLKPEVNAVYYLKKAYYLYAGDYWGQGTQVTVSS", "polyreactivity (PSR sort gate)": "high polyreactivity"}
{"sequence": "QVQRVESGGGLVQAGGRLRLSCAASGRTFETNAMGWYRQAPGKERELVAAISRSGGSTRYADSVKGRFTISRDNAKNTVYLQMNSLKPEDTAVYYCAVRVGLGGGYGGQGTQVTVSS", "polyreactivity (PSR sort gate)": "high polyreactivity"}
{"sequence": "QVQRVESGGGLVQAGGRLRLSCAASGSIFASYDMGWYRQSRGKERELVARITFNAGSTYYADSVKGRFTISRDNAKNTVYLQMNSLKPEDTAVYYCIADYPWEYDYWGEGTQVTVSS", "polyreactivity (PSR sort gate)": "low polyreactivity"}
{"sequence": "QVQRVESGGGLVQAGGRLRLSCAASGSIFFSKAMGWYRPAPGKERELVAGIRSGGITNYADSVKGRFTISRDNAKNTVSLQMNSLKPEDTAVYYCAKLKDHGRYAYAFDYWGQGTQVTVSS", "polyreactivity (PSR sort gate)": "low polyreactivity"}
{"sequence": "QVQRVESGGGLVQAGGRLRLSCAASGSTFLYNAMGWYRQAPGKERELVATISSGGGSTNYADSVKGRFTNSRDNAKNTVYLPMNSLKPEDTAVYYCAVEGYDSYKDDYWGQGTQVTVSS", "polyreactivity (PSR sort gate)": "low polyreactivity"}
{"sequence": "QVQRVESGGGLVQAGGRLRLSSAASGSIFGRYGMGWYRQAPGKDRELVAAITSGTRRNYADSVKGRFTISRDNAKNTVYLQMNSLKPEDTAVYYCNAVRLRGNYEYGYWGLGTQVTVSS", "polyreactivity (PSR sort gate)": "low polyreactivity"}
{"sequence": "QVQRVESGGGLVQAGGRLRVSCAASGRTFYIYAMGWYRQAPGKERELVADITSGGSTYYADSVKGRFTISRDNAKNTVYLQMNCLKPEDTAVYYCNAGPHWFYRYGRYDYWGQGTQVTVSS", "polyreactivity (PSR sort gate)": "low polyreactivity"}
{"sequence": "QVQRVESGGGLVQAGGSLRLSCAASGFIFYFYAMRWYRQAPGNERELVAAITWSGTDTYYADSVKGRFTISRDNAKNTVYLQMNSLKPEDTAVYYCARSEHSLVSIKVDYWGQGTQVTVSS", "polyreactivity (PSR sort gate)": "low polyreactivity"}
{"sequence": "QVQRVESGGGLVQAGGSLRLSCAASGFTFSLYGMGWYRPARGKGRELVAAIRSGGSTNYADSVKGRYTISRDNAKNTVYLQMNSLKPEDTAVYYCATDIHSGHNNRDKHDYDYWGQGTQETVSS", "polyreactivity (PSR sort gate)": "low polyreactivity"}
{"sequence": "QVQRVESGGGLVQAGGSLRLSCAASGIIFALYAMGWYRQAPGKERELVAAISTSGGRTYYADSVKGRFTISRDNAKNTVYFQMNSLKPEDTAVYYCAAGYPYWYHSRLAFDYWGQGTQVTVSS", "polyreactivity (PSR sort gate)": "high polyreactivity"}
{"sequence": "QVQRVESGGGLVQAGGSLRLSCAASGITFKYYGMGWYRRAPGKERELVAAITRSGGSTSYADSVKGRFTISRDNAKNTVYLQMHSLKPEDTAVYYCAAERYVLTWLGIERYYWGQGTQVTVSS", "polyreactivity (PSR sort gate)": "high polyreactivity"}
{"sequence": "QVQRVESGGGLVQAGGSLRLSCAASGKIFGQYAMGRYRQAPGKEREFVAAITWSGGSTYYADSVKGRFTISRDNAKNTVYLQMNSLKPEDTAVYYCAADYGKTHRYDYDYWGQGTQVTVSS", "polyreactivity (PSR sort gate)": "low polyreactivity"}
{"sequence": "QVQRVESGGGLVQAGGSLRLSCAASGLTFEYNAMGWYRQAPGKEREFVATISNGGITSYADSVKGRFTISRDNAKNTVYLQMNSLKPEDTGVYYCAASYADSPTTDQLWLEYDSWGQGTQVTVSS", "polyreactivity (PSR sort gate)": "low polyreactivity"}
{"sequence": "QVQRVESGGGLVQAGGSLRLSCAASGLTFRYYAVGWYRQAPGKERELVAAITSNGGRTYYADSVKGRFTISRDNAKNTVYLQMNSLKPEDTAVYYCAAVYLYYGGVDYWGQGTQVTVSS", "polyreactivity (PSR sort gate)": "high polyreactivity"}
{"sequence": "QVQRVESGGGLVQAGGSLRLSCAASGLTFVYYAMGWYRQAPGKERELVAAISESGTSTYYADSVKGRFTISRDNAKNTVYLQMNSLKPEDTAVYYCAAKDSYYEMDYWGQGTQVTVSS", "polyreactivity (PSR sort gate)": "high polyreactivity"}
{"sequence": "QVQRVESGGGLVQAGGSLRLSCAASGRIFQIYAMGWYRQAPGKERELVAAIRSGSNTNYADSVKGRFTISRDNAKNTVYLQMNSLKPEDTAVYYCNALYTSLRKDNYWGQGTQVTVST", "polyreactivity (PSR sort gate)": "low polyreactivity"}
{"sequence": "QVQRVESGGGLVQAGGSLRLSCAASGRIFWYYAMGWYRQAPGTERQLVAAITSGGRTNFADSVKGRFTISSDNAKNSVYLQMNSLKPEDTAVYYCAAGYYNYLYRLRDQDFDYWGQGTQVTVSS", "polyreactivity (PSR sort gate)": "high polyreactivity"}
{"sequence": "QVQRVESGGGLVQAGGSLRLSCAASGRISSWNAMGWYRQAPGKERELVATISRRGGSTYYADSVKGRFTISRDNAKNTVYFQMNSLKQEDTAVYYCAKSSWTYGAYNYWGQGTQVTVSS", "polyreactivity (PSR sort gate)": "high polyreactivity"}
{"sequence": "QVQRVESGGGLVQAGGSLRLSCAASGRTFDGYAMGWYRQAPGKDRELVAAISKRGGSTYYADSVKGRFTISRDNAKNTVYLQMHSLKPEDTAVYYCNTRYFGDQTWVGGDSWGQGTQVTVSS", "polyreactivity (PSR sort gate)": "high polyreactivity"}
{"sequence": "QVQRVESGGGLVQAGGSLRLSCAASGRTFRSYAMGWYRQAPGKERQFVAAISRSGASTRYADSVKGRFTISRDNAKNTVYFQMNSLKPEDTAVYYCAAVWPDVRGYDYWGQGTQVTVSS", "polyreactivity (PSR sort gate)": "high polyreactivity"}
{"sequence": "QVQRVESGGGLVQAGGSLRLSCAASGSIFPIYAMGWYRQAPGKERELVAGITWSGGSTYYADSVKGRFTISRDNAKNTVYLQMNSLKPEDTAVYYCAAERWHPYDYWGQGTQVTVSS", "polyreactivity (PSR sort gate)": "low polyreactivity"}
{"sequence": "QVQRVESGGGLVQAGGSLRLSCAASGSIFPYYAMGWYRQAPGKETELVATITYRGGSTNYADSVKGRFTISRDNAKNTVYLQMNSLKPEDTAVYSCAAYGYVLASPYPYSFVKLGYCGQGTQVTVSS", "polyreactivity (PSR sort gate)": "low polyreactivity"}
{"sequence": "QVQRVESGGGLVQAGGSLRLSCAASGSIFYSYAMGWYRQAPGKARELVATISWSGGRTNYADSVQGRFTISRDNAKNTVYLQMNSLKPEDTAVYYCAADIPPWGGDYWGQGTQVTVSS", "polyreactivity (PSR sort gate)": "low polyreactivity"}
{"sequence": "QVQRVESGGGLVQAGGSLRLSCAASGSIRGYAMGWYRQAPVKERELVAAISWRGGSTYYADSVKGRFTISRDNAKNTVYLQMNSLKPEDTAVYYCATKGYPHVSTWMDSWGQGTQVTVSS", "polyreactivity (PSR sort gate)": "low polyreactivity"}
{"sequence": "QVQRVESGGGLVQAGGSLRLSCAASGSTFPPYGMGWSRQAPGKERELVAAITWRGGRTYYADSVKGRFTISRDNAKNTVYLQMNSLKPEDTAVYYCAASYGPRTGYATYRYASSRYNYWGQGTQVTVSS", "polyreactivity (PSR sort gate)": "high polyreactivity"}
{"sequence": "QVQRVESGGGLVQAGGSLRLSCAASGSTFVNYVMGLYRQAPGKERELVAAISWSGGRTYYADSMKGRFTISRDNAKNTVYLQMNSLKPEDTAVYYCNAVYAGFLRVRYDYWGQGTQVTVSS", "polyreactivity (PSR sort gate)": "high polyreactivity"}
{"sequence": "QVQRVESGGGLVQAGGSLRLSCAASGSTFYTNAMGWYRQAPGKERELVASITGGGSTYYADSVKGRFTISRDNAKNTVYLQMNSLKPEDTAVYYCAADNFGGGWEFDSWGQGTQVTVSS", "polyreactivity (PSR sort gate)": "low polyreactivity"}
